This passage reports Kd results from paper PMC8298602 (2021).

Experiment [1] concerns the target Nedd^335-455pS342 + pT367 (human, UniProt Q96PU5 335-455, S448A, phosphoserine at 342, phosphothreonine at 367). The experiment in a line: AUC.
The target in experiment [2] is Nedd^335-455pT367 + pS448 (human, UniProt Q96PU5 335-455, S342A, phosphothreonine at 367, phosphoserine at 448). The experiment in a line: AUC.

B1: 14-3-3η (natural protein)
chain: MGDREQLLQRARLAEQAERYDDMASAMKAVTELNEPLSNEDRNLLSVAYKNVVGARRSSWRVISSIEQKTMADGNEKKLEKVKAYREKIEKELETVCNDVLSLLDKFLIKNCNDFQYESKVFYLKMKGDYYRYLAEVASGEKKNSVVEASEAAYKEAFEISKEQMQPTHPIRLGLALNFSVFYYEIQNAPEQACLLAKQAFDDAIAELDTLNEDSYKDSTLIMQLLRDNLTLWTSDQQDEEAGEGN
Regarding B1, the values for the Kd in experiment [1] and in experiment [2] were 200 nM and 170 nM, respectively.

What is called Kd is a measure of binding affinity in units of concentration.
